Consider six molecules from patent publication EP4491631A1 (Anaveon AG, dated 2025).

The labels stand for the following.
T1: IL-2R CD122-CD132 on Jurkat-PD1+ CD122+ cells (UniProt P14784 27-551; P31785 23-369)
T1 sequence (looked up) 1: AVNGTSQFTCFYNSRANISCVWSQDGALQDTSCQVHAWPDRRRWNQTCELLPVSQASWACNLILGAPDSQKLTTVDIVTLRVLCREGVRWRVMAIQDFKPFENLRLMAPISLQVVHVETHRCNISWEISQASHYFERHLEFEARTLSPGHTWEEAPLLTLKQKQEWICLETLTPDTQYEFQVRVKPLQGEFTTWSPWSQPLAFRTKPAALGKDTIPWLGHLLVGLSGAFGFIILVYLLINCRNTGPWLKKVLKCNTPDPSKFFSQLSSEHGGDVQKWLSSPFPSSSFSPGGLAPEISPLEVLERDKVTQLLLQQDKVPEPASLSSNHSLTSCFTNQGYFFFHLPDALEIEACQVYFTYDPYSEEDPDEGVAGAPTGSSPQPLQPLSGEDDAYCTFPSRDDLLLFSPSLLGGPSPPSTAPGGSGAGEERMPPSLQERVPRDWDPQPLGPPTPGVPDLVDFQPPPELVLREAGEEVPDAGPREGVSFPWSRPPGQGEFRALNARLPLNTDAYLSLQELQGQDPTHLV
T1 sequence (looked up) 2: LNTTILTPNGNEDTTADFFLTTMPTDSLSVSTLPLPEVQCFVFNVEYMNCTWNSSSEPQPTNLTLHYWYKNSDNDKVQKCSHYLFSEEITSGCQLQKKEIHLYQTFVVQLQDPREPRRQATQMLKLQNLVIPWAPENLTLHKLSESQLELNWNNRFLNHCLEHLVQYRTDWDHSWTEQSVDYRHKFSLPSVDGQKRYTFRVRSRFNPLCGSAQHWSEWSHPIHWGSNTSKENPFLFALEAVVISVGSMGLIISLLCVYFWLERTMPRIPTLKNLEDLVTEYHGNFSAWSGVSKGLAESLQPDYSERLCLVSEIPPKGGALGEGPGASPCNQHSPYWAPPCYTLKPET

B1: YPW986 (bispecific antibody)
chain 1: EVQLLESGGGLVQPGGSLRLSCAASGFTFSINAMTWVRQAPGKGLEWVSTISGSGFSTYYADSLKGRFTISRDNSKNTLYLQMNSLRAEDTAVYYCAKEVYGDYWGQGTLVTVSSASVAAPSVFIFPPSDEQLKSGTASVVCLLNNFYPREAKVQWKVDNALQSGNSQESVTEQDSKDSTYSLSSTLTLSKADYEKHKVYACEVTHQGLSSPVTKSFNRGECDKTHTCPPCPAPEAAGGPSVFLFPPKPKDTLMISRTPEVTCVVVDVSHEDPEVKFNWYVDGVEVHNAKTKPREEQYNSTYRVVSVLTVLHQDWLNGKEYKCKVSNKALAAPIEKTISKAKGQPREPQVYTLPPSREEMTKNQVSLTCLVKGFYPSDIAVEWESNGQPENNYKTTPPVLDSDGSFFLTSKLTVDKSRWQQGNVFSCSVMHEALHNHYTQKSLSLSPGK
chain 2: RSVLTQPPSASGTPGQRVSISCSGASSNIGSQSVFWYQQLPGTAPKLLIYSNNQRPSGVPDRFSGSKSGTSASLAISGLRSEDEADYYCAAWDDSLSIWVFGGGTKLTVLSSASTKGPSVFPLAPSSKSTSGGTAALGCLVKDYFPEPVTVSWNSGALTSGVHTFPAVLQSSGLYSLSSVVTVPSSSLGTQTYICNVNHKPSNTKVDKRVEPKSC
chain 3: EVQLVQSGAEVKKPGESLKISCKGSGYAFTNYLIEWVRQMPGKGLEWMGVINPGSGGTNYNEKFKGQVTISADKSISTAYLQWSSLKASDTAMYYCARWRGEGYYAYFDVWGQGTTVTVSSASTKGPSVFPLAPSSKSTSGGTAALGCLVKDYFPEPVTVSWNSGALTSGVHTFPAVLQSSGLYSLSSVVTVPSSSLGTQTYICNVNHKPSNTKVDKRVEPKSCDKTHTCPPCPAPEAAGGPSVFLFPPKPKDTLMISRTPEVTCVVVDVSHEDPEVKFNWYVDGVEVHNAKTKPREEQYNSTYRVVSVLTVLHQDWLNGKEYKCKVSNKALAAPIEKTISKAKGQPREPQVYTLPPSREEMTKNQVSLYCLVKGFYPSDIAVEWESNGQPENNYKTTPPVLDSDGSFFLYSKLTVDKSRWQQGNVFSCSVMHEALHNHYTQKSLSLSPGK
chain 4: not shown
B2: RIB426 (bispecific antibody, human IgG1, kappa, L234A L235A)
chain 1: QVQLVQSGAEVKKPGASVKVSCKASGYTFTNFYIHWVRQAPGQGLEWMGRIYPNYGITAYNQKFKDRVTMTVDTSTSTAYMELRSLRSDDTAVYYCARGYSYAMDYWGQGTTVTVSSASVAAPSVFIFPPSDEQLKSGTASVVCLLNNFYPREAKVQWKVDNALQSGNSQESVTEQDSKDSTYSLSSTLTLSKADYEKHKVYACEVTHQGLSSPVTKSFNRGECDKTHTCPPCPAPEAAGGPSVFLFPPKPKDTLMISRTPEVTCVVVDVSHEDPEVKFNWYVDGVEVHNAKTKPREEQYNSTYRVVSVLTVLHQDWLNGKEYKCKVSNKALAAPIEKTISKAKGQPREPQVYTLPPSREEMTKNQVSLTCLVKGFYPSDIAVEWESNGQPENNYKTTPPVLDSDGSFFLTSKLTVDKSRWQQGNVFSCSVMHEALHNHYTQKSLSLSPGK
chain 2: DIQMTQSPSSVSASVGDRVTITCSASQGISGDLNWYQQKPGKAPKLLIYHTSQRHSDVPSRFSGSGSGTDFTLTISSLQPEDFATYYCQGYSKDLLTFGGGTKLEIKSSASTKGPSVFPLAPSSKSTSGGTAALGCLVKDYFPEPVTVSWNSGALTSGVHTFPAVLQSSGLYSLSSVVTVPSSSLGTQTYICNVNHKPSNTKVDKRVEPKSC
chain 3: B1 chain 3
chain 4: not shown
B3: QAB373 (bispecific antibody, human IgG1, kappa, L234A L235A)
chain 1: B2 chain 1 with R50S
chain 2: B2 chain 2 with R54L
chain 3: B1 chain 3
chain 4: not shown
B4: PXU588 (bispecific antibody)
chain 1: B1 chain 1
chain 2: B1 chain 2 with Q32S
chain 3: B1 chain 3
chain 4: not shown
B5: MDS446 (bispecific antibody, human IgG1, kappa, L234A L235A)
chain 1: QVQLVQSGAEVKKPGASVKVSCKASGYTFTNFYIHWVRQAPGQGLEWMGSIYPNYGITAYNQKFKDRVTMTVDTSTSTAYMELRSLRSDDTAVYYCARGYSYAMDYWGQGTTVTVSSASTKGPSVFPLAPSSKSTSGGTAALGCLVKDYFPEPVTVSWNSGALTSGVHTFPAVLQSSGLYSLSSVVTVPSSSLGTQTYICNVNHKPSNTKVDKRVEPKSCDKTHTCPPCPAPEAAGGPSVFLFPPKPKDTLMISRTPEVTCVVVDVSHEDPEVKFNWYVDGVEVHNAKTKPREEQYNSTYRVVSVLTVLHQDWLNGKEYKCKVSNKALAAPIEKTISKAKGQPREPQVYTLPPSREEMTKNQVSLTCLVKGFYPSDIAVEWESNGQPENNYKTTPPVLDSDGSFFLTSKLTVDKSRWQQGNVFSCSVMHEALHNHYTQKSLSLSPGK
chain 2: DIQMTQSPSSVSASVGDRVTITCSASQGISGDLNWYQQKPGKAPKLLIYHTSQLHSDVPSRFSGSGSGTDFTLTISSLQPEDFATYYCQGYSKDLLTFGGGTKLEIKRTVAAPSVFIFPPSDEQLKSGTASVVCLLNNFYPREAKVQWKVDNALQSGNSQESVTEQDSKDSTYSLSSTLTLSKADYEKHKVYACEVTHQGLSSPVTKSFNRGEC
chain 3: AIRLTQSPSSFSASTGDRVTITCKASQSVDYGGGNFHLRPRDLISNINVIVLELKGSETTFMCEYADETATIVEFLNRWITFSQSIISTLTPTSSSTKKTQLQLEHLLLDLQMILNGINNYKNPKLTRMLTFKFYMPKKATELKHLQCLEEELKPLEEVLNLAQSKGGGGDSYMNWYQQKPGKAPKLLIYAASNLESGVPSRFSGSGSGTDFTLTISSLQSEDFATYYCQQSNEDPYTFGGGTKVEIKGGGGSGGGGSGGGGSEVQLVQSGAEVKKPGESLKISCKGSGYAFTNYLIEWVRQMPGKGLEWMGVINPGSGGTNYNEKFKGQVTISADKSISTAYLQWSSLKASDTAMYYCARWRGEGYYAYFDVWGQGTTVTVSSGGGGSGGGGSQVQLVQSGAEVKKPGASVKVSCKASGYTFTNFYIHWVRQAPGQGLEWMGSIYPNYGITAYNQKFKDRVTMTVDTSTSTAYMELRSLRSDDTAVYYCARGYSYAMDYWGQGTTVTVSSASTKGPSVFPLAPSSKSTSGGTAALGCLVKDYFPEPVTVSWNSGALTSGVHTFPAVLQSSGLYSLSSVVTVPSSSLGTQTYICNVNHKPSNTKVDKRVEPKSCDKTHTCPPCPAPEAAGGPSVFLFPPKPKDTLMISRTPEVTCVVVDVSHEDPEVKFNWYVDGVEVHNAKTKPREEQYNSTYRVVSVLTVLHQDWLNGKEYKCKVSNKALAAPIEKTISKAKGQPREPQVYTLPPSREEMTKNQVSLYCLVKGFYPSDIAVEWESNGQPENNYKTTPPVLDSDGSFFLYSKLTVDKSRWQQGNVFSCSVMHEALHNHYTQKSLSLSPGK
B6: TMU471 (bispecific antibody, human IgG1, kappa, L234A L235A)
chain 1: B5 chain 1 with S50R
chain 2: B5 chain 2 with L54R
chain 3: B5 chain 3 with S444R

Changes are numbered by the printed parent chain.

This experiment concerns the target T1, IL-2R CD122-CD132 on Jurkat-PD1+ CD122+ …. Put plainly: cell-based or functional assay.
With B1, the “EC50 value for pSTAT5 induction” value was 43.9 nM.
Consider B2, for which the “EC50 value for pSTAT5 induction” value turned out to be 0.12 nM.
As for B3, the “EC50 value for pSTAT5 induction” value was found to be 0.07 nM.
For the molecule B4, the “EC50 value for pSTAT5 induction” value is 5.37 nM.
Then B5, with 0.06 nM.
With B6 the figure was 0.06 nM.
